Reference: article PMC10500460

Key:
[1] = biological target: PARD3 (UniProt Q8TEW0); assay: biotin-peptide pull-down from lysate, Western blot; details: reference: unphosphorylated E7 13-28 peptide; sites T19,T20
[2] = biological target: PTPN13 (UniProt Q12923); assay: biotin-peptide pull-down from lysate, Western blot; details: reference: unphosphorylated E7 13-28 peptide; sites T19,T20
[3] = biological target: AP2-μ2 (APμ2-HA) (UniProt P84092); assay: biotin-peptide pull-down from lysate, Western blot; details: reference: unphosphorylated E7 13-28 peptide; sites T19,T20
[4] = biological target: pRb (UniProt P06400); assay: biotin-peptide pull-down from lysate, Western blot; details: reference: unphosphorylated E7 13-28 peptide; sites T19,T20
[5] = biological target: IQGAP1 (UniProt P46940); assay: GST pull-down after in vitro phosphorylation; details: reference: GST-E7 not kinase-treated; sites T5,T7,T19,T20
[6] = biological target: PTPN14 (UniProt Q15678); assay: GST pull-down after in vitro phosphorylation; details: reference: GST-E7 not kinase-treated; sites T5,T7,T19,T20

Row | Substance | binding against the reference [1] | binding against the reference [2] | binding against the reference [3] | binding against the reference [4] | binding against the reference [5] | binding against the reference [6]
1 | HPV16 E7 13-28 (from UniProt P03129) pT19/pT20 E7 13-28 peptide | gained | gained | stronger | stronger |  | 
2 | HPV16 E7 (from UniProt P03129) GST-E7 phosphorylated with CKI and GSK3 |  |  |  |  | stronger | same
